Reference: the supplement of paper PMC6757056
± gives the standard deviation of the averaged measurements.

B1: library; a variant is named by its letters at N, in order (parent)
chain: GCUGUCACCGAGAAACUGUGAAGUAUAUCUUAAACCUGGGCACUUAAAAGAUAUAUGGAGUUAGUAGUGCAACCUGCUCGGUCUGAUGAGUCCNNNNNNGGACGAAACAGC

Columns and labels:
[1] = variants of: B1; experiment: normalized RNA/DNA level without ligand (relative to sTRSVctl = 100) (log10 (% of sTRSVctl)); HEK293T; ligand: cyclic di-GMP (c-di-GMP-II aptamer); higher = less ribozyme self-cleavage, higher mRNA level; conditions: reporter: mCherry (pCS4076), ligand present: no
Summary of the method: (§1)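 Library plasmids encoding reporter-linked ribozyme switches (mCherry, or eGFP for some folinic acid experiments) were transfected into HEK293T at 4 µg per 6-well well. Ligand, when used, was added 1 h before transfection. Total RNA was extracted with EDTA 72 h later, then reverse-transcribed, amplified, barcoded and sequenced. RNA level was RNA reads over DNA reads, divided by a spiked-in non-cleaving control (or the top 25 sequences), ×100, log10; only sequences with ≥100 DNA reads were kept.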

[2] = variants of: B1; experiment: normalized RNA/DNA level with ligand (relative to sTRSVctl = 100) (log10 (% of sTRSVctl)); HEK293T; ligand: cyclic di-GMP (c-di-GMP-II aptamer); ligand concentration (+) RNA-Seq: 1 mM; higher = less ribozyme self-cleavage, higher mRNA level; conditions: reporter: mCherry (pCS4076), ligand present: yes
Summary of the method: as §1

Variant	normalized RNA/DNA level without ligand (log10) [1]	normalized RNA/DNA level with ligand (log10) [2]
GCAAAA	1.35 ± 0.18	1.59 ± 0.078
GCAUAA	1.41 ± 0.19	1.61 ± 0.064
GCAUAU	1.528 ± 0.014	1.72 ± 0.06
UCAAAC	1.63 ± 0.026	1.8 ± 0.079
UCAAAU	1.5 ± 0.063	1.71 ± 0.092
UCAAAG	1.602 ± 0.012	1.77 ± 0.12
ACAUGC	1.59 ± 0.049	1.77 ± 0.053
ACAUGU	1.541 ± 0.01	1.69 ± 0.091
ACAUGA	1.3 ± 0.07	1.53 ± 0.13
ACAACG	1.46 ± 0.1	1.65 ± 0.12
ACAACC	1.67 ± 0.02	1.82 ± 0.1
ACAACA	1.46 ± 0.076	1.68 ± 0.099
UCCAAG	1.6 ± 0.033	1.78 ± 0.097
UCCAAU	1.645 ± 0.015	1.82 ± 0.12
UCCAAC	1.62 ± 0.037	1.78 ± 0.11
ACCAAU	1.48 ± 0.049	1.7 ± 0.11
CCACGG	1.79 ± 0.058	1.89 ± 0.037
CCACGC	1.66 ± 0.022	1.83 ± 0.12
CCACGA	1.6 ± 0.04	1.74 ± 0.086
CCACGU	1.64 ± 0.046	1.81 ± 0.13
ACAUAU	1.45 ± 0.097	1.64 ± 0.14
ACCCCA	1.744 ± 0.012	1.86 ± 0.1
CCAACU	1.56 ± 0.0039	1.75 ± 0.15

Variant	normalized RNA/DNA level without ligand (log10) [1]	normalized RNA/DNA level with ligand (log10) [2]
CCAACG	1.71 ± 0.049	1.85 ± 0.1
CCAACA	1.53 ± 0.029	1.72 ± 0.13
GCCAAA	1.49 ± 0.1	1.68 ± 0.08
GCCAAC	1.51 ± 0.086	1.66 ± 0.056
GCACGU	1.49 ± 0.07	1.7 ± 0.12
GCACGC	1.66 ± 0.027	1.78 ± 0.2
GCACGG	1.55 ± 0.053	1.66 ± 0.12
CCCACU	1.624 ± 0.014	1.83 ± 0.12
CCCACG	1.75 ± 0.018	1.87 ± 0.044
CCCACA	1.57 ± 0.098	1.74 ± 0.05
CCCACC	1.728 ± 0.007	1.84 ± 0.097
GCAGGG	1.6 ± 0.05	1.74 ± 0.082
GCAGGC	1.58 ± 0.032	1.71 ± 0.025
GCAGGA	1.4 ± 0.075	1.56 ± 0.091
ACAUUC	1.6 ± 0.084	1.81 ± 0.058
ACAUUU	1.42 ± 0.05	1.67 ± 0.11
CCAGAG	1.42 ± 0.049	1.62 ± 0.17
CCAGAU	1.65 ± 0.025	1.81 ± 0.12
CCAAGG	1.688 ± 0.013	1.8 ± 0.1
CCAAGC	1.59 ± 0.059	1.76 ± 0.13
UCAGUU	1.52 ± 0.16	1.74 ± 0.13
CCACUC	1.7 ± 0.022	1.8 ± 0.1
CCACUG	1.39 ± 0.042	1.63 ± 0.12

Variant	normalized RNA/DNA level without ligand (log10) [1]	normalized RNA/DNA level with ligand (log10) [2]
CCAUAG	1.4 ± 0.17	1.66 ± 0.043
CCAUAC	1.632 ± 0.0016	1.78 ± 0.075
CCAUAU	1.55 ± 0.041	1.73 ± 0.071
CCAAUU	1.58 ± 0.06	1.72 ± 0.086
CCAAUC	1.55 ± 0.1	1.71 ± 0.1
GCAGAU	1.43 ± 0.093	1.6 ± 0.083
GCAGAC	1.42 ± 0.068	1.59 ± 0.079
GCAUCG	1.59 ± 0.045	1.76 ± 0.099
GCAUCA	1.61 ± 0.11	1.77 ± 0.12
GCAUCC	1.65 ± 0.077	1.82 ± 0.052
CCAUUC	1.59 ± 0.043	1.77 ± 0.12
CCAUUU	1.569 ± 0.013	1.7 ± 0.12
CCAUUA	1.41 ± 0.066	1.6 ± 0.093
ACAAGG	1.33 ± 0.17	1.54 ± 0.098
GCACAG	1.58 ± 0.061	1.71 ± 0.14
CCCAAC	1.61 ± 0.037	1.82 ± 0.086
CCCAAU	1.55 ± 0.066	1.77 ± 0.11
CCCAAG	1.587 ± 0.0023	1.74 ± 0.17
CCCAUG	1.53 ± 0.08	1.73 ± 0.13
CCCAUC	1.728 ± 0.0037	1.84 ± 0.14
CCAGCC	1.762 ± 0.0075	1.86 ± 0.13
CCAGCU	1.682 ± 0.011	1.86 ± 0.084
CCAGCG	1.76 ± 0.036	1.91 ± 0.097

Variant	normalized RNA/DNA level without ligand (log10) [1]	normalized RNA/DNA level with ligand (log10) [2]
ACAAAG	1.4 ± 0.073	1.6 ± 0.06
ACAAAC	1.55 ± 0.084	1.72 ± 0.091
UCAGAA	1.35 ± 0.17	1.65 ± 0.14
UCAGAG	1.53 ± 0.045	1.69 ± 0.042
UCAGAC	1.63 ± 0.017	1.76 ± 0.13
GCACCU	1.6643 ± 0.00076	1.85 ± 0.14
GCACCA	1.586 ± 0.0036	1.75 ± 0.11
GCACCC	1.66 ± 0.027	1.84 ± 0.075
GCACCG	1.72 ± 0.037	1.86 ± 0.11
CCCCCC	1.82 ± 0.043	1.93 ± 0.12
ACACAC	1.633 ± 0.0097	1.81 ± 0.09
ACACAA	1.41 ± 0.056	1.66 ± 0.16
ACACAU	1.46 ± 0.06	1.67 ± 0.092
ACACGU	1.62 ± 0.043	1.83 ± 0.081
ACACGC	1.554 ± 0.0051	1.76 ± 0.13
UCAUAG	1.65 ± 0.02	1.77 ± 0.17
UCAUAC	1.674 ± 0.011	1.81 ± 0.11
UCAUAU	1.54 ± 0.037	1.72 ± 0.13
UCAUAA	1.47 ± 0.065	1.67 ± 0.087
GCAAGG	1.41 ± 0.14	1.57 ± 0.11
GCAAGU	1.39 ± 0.16	1.64 ± 0.082
GCAAGA	1.33 ± 0.12	1.54 ± 0.1
UCCCAC	1.758 ± 0.0044	1.87 ± 0.097

Variant	normalized RNA/DNA level without ligand (log10) [1]	normalized RNA/DNA level with ligand (log10) [2]
UCCCAU	1.71 ± 0.02	1.85 ± 0.16
UCCCAG	1.79 ± 0.048	1.9 ± 0.089
UCCCAA	1.6799 ± 0.00075	1.84 ± 0.077
CCAAAG	1.41 ± 0.056	1.61 ± 0.1
CCAAAA	1.35 ± 0.091	1.62 ± 0.079
ACAGGU	1.42 ± 0.16	1.64 ± 0.07
ACAGGG	1.5 ± 0.11	1.58 ± 0.15
ACAGGC	1.5 ± 0.065	1.68 ± 0.11
ACAGGA	1.3 ± 0.067	1.41 ± 0.16
CCAGGG	1.52 ± 0.025	1.77 ± 0.12
CCAGGU	1.69 ± 0.061	1.82 ± 0.081
CCAGGA	1.5 ± 0.088	1.71 ± 0.12
CCCAGU	1.736 ± 0.015	1.86 ± 0.068
CCCAGG	1.77 ± 0.025	1.89 ± 0.077
CCCAGC	1.72 ± 0.03	1.84 ± 0.16
UCCAGU	1.63 ± 0.021	1.84 ± 0.11
UCCAGG	1.81 ± 0.046	1.9 ± 0.14
UCAGCC	1.818 ± 0.0024	1.88 ± 0.14
UCAGCA	1.672 ± 0.004	1.82 ± 0.097
UCAGCU	1.671 ± 0.0017	1.82 ± 0.15
UCAUCG	1.79 ± 0.023	1.88 ± 0.086
UCAUCU	1.71 ± 0.052	1.9 ± 0.1
UCAUCC	1.78 ± 0.027	1.9 ± 0.082
